Molecular target: human EGF receptor 1 (human, UniProt P00533 25-1210)
Experiment: cell-based or functional assay

B1: Ex3 scFv-Fc, IgG-type bispecific antibody of OHL-Fc and 5HL-CL (bispecific antibody)
heavy: not shown
light: QVQLVQSGAEVKKPGASVKVSCKASGYTFTSYWMHWVRQAPGQGLEWMGNIYPGSGGTNYAEKFKNRVTMTRDTSISTAYMELSRLRSDDTAVYYCARSGGPYFFDYWGQGTLVTVSSAGGGGSGGGGSGGGGSDIVMTQSPLSLPVTPGEPASISCRSSQNIVHNNGITYLEWYLQKPGQSPQLLIYKVSDRFSGVPDRFSGSGSGTDFTLKISRVEAEDVGVYYCFQGSHIPPTFGQGTKVEIKRTVAAPSVFIFPPSDEQLKSGTASVVCLLNNFYPREAKVQWKVDNALQSGNSQESVTEQDSKDSTYSLSSTLTLSKADYEKHKVYACEVTHQGLSSPVTKSFNRGEC
cytotoxicity, 51Cr release assay (Colo-Tc, EGFR/CHO and CHO cells): ~0.002 fold of the concentration of Ex3

Reference: patent publication US20090202532A1 (TOHOKU UNIVERSITY, published 2009)
